Assay results from doi:10.1101/2020.03.04.976142.

Columns and labels:
Assay in all cases: ITC
AnkG exZZUD (rat) = AnkG exZZUD (rat) (UniProt O70511)
[1] = target: AnkB ZU5N-ZU5C-UPA-DD tandem (ZZUD, aa 966-1535) (human)
[2] = target: AnkB exZZU (extension-ZU5N-ZU5C-UPA, aa 951-1443) (human)
AnkB exZZU F968A (human) = target: AnkB exZZU F968A (human)
AnkB exZZU I964Q (human) = target: AnkB exZZU I964Q (human)
[3] = target: AnkB exZZU R1029E (human)
[4] = target: AnkB exZZU T1324D (human)

Chain of UniProt O70511 (O70511 whole entry, the tested form may be a part): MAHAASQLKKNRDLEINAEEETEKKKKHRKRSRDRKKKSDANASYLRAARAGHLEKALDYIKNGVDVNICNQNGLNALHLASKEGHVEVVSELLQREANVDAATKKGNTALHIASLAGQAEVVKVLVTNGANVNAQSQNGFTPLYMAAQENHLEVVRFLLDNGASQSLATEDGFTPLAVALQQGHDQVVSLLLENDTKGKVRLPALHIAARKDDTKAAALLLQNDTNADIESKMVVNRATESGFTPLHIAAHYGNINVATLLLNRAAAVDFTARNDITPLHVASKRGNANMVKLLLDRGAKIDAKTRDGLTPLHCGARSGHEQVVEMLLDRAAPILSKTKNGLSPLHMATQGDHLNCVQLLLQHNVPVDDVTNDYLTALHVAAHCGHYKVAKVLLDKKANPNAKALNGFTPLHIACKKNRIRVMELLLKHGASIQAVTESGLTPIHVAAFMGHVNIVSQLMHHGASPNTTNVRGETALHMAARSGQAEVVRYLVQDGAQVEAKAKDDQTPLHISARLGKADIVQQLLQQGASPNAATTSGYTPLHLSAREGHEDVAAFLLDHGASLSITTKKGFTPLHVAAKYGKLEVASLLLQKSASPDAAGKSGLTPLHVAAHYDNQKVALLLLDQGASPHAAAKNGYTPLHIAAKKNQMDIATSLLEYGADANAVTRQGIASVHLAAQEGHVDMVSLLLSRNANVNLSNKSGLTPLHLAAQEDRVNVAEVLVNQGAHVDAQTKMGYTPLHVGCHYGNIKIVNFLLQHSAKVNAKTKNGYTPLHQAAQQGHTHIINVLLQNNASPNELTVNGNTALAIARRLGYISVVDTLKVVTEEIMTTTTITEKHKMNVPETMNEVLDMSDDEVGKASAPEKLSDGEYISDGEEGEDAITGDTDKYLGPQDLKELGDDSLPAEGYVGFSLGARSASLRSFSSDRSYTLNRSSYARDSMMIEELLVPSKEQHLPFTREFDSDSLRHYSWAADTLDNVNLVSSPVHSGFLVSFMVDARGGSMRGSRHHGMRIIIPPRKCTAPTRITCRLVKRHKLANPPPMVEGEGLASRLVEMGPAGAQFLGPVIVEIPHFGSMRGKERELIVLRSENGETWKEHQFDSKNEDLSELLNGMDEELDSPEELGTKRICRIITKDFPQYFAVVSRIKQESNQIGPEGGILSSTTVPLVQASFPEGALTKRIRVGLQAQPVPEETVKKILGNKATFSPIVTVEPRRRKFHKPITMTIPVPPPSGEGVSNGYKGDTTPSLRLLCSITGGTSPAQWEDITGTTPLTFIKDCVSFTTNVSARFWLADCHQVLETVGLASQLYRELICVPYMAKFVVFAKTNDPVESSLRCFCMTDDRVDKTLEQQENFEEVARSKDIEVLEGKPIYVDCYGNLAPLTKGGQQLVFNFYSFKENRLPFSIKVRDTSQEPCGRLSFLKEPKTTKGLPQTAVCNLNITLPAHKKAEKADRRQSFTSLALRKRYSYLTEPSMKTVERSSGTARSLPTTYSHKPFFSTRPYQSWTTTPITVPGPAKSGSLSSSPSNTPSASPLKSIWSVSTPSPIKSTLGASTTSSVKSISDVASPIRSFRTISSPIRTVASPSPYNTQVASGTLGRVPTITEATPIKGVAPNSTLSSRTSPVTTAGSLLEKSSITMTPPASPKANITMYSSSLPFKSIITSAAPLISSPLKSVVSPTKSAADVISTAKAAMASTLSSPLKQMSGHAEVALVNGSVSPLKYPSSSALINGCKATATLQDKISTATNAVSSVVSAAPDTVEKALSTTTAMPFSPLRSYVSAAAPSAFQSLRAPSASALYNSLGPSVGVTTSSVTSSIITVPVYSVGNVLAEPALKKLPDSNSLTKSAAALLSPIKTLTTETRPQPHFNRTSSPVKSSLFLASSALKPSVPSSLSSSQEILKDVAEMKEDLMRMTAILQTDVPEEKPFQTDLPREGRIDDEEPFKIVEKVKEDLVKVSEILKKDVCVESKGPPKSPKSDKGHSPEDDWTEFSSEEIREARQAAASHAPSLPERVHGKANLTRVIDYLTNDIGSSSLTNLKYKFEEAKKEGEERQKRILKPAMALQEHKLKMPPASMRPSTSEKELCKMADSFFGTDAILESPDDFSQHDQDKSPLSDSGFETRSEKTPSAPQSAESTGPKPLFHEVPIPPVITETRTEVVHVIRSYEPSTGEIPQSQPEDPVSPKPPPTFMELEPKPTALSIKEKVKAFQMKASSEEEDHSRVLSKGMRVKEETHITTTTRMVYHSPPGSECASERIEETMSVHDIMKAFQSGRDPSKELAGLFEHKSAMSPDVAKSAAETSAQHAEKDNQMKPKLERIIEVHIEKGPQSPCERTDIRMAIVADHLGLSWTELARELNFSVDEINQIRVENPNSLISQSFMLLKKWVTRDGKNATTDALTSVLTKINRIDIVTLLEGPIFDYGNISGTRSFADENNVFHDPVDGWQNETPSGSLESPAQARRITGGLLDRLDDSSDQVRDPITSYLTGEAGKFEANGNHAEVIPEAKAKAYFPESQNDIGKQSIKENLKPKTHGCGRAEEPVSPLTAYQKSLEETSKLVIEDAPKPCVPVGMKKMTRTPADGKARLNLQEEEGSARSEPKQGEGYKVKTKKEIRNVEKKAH

Question: “β2-spectrin R13-16 (from UniProt Q62261 1-2363) (domain or fragment)” was tested. Which fold stronger binding than AnkG ZZUD without the extension (AnkG exZZUD (rat)) did it give?
Answer: > 10 fold

Question: With “β2-spectrin spectrin repeats 13-15 (R13-15) (domain or fragment)” as the substance, how does the Kd [1] read?
Answer: 4.9 µM

Question: What about the Kd [2] of the same substance?
Answer: 200 nM

Question: What about the fold decrease of binding against wild-type AnkB exZZU (AnkB exZZU F968A (human)) of the same substance?
Answer: > 10 fold

Question: What about the fold decrease of binding against wild-type AnkB exZZU (AnkB exZZU I964Q (human)) of the same substance?
Answer: 4 fold

Question: What about the fold decrease of binding against wild-type AnkB exZZU [3] of the same substance?
Answer: 5 fold

Question: With “β4-spectrin spectrin repeats 13-15 (R13-15) (domain or fragment)” as the substance, how does the fold decrease of binding against wild-type AnkB exZZU [4] read?
Answer: 5 fold
